For one substance, EC50 results are on record in publication PMC9851377.

This assay addresses CD3 on T lymphocytes (human (endogenous in T lymphocytes from PBMCs)) (UniProt P07766). The assay is described as follows: FACS; dimer; binding to T lymphocytes. A general note: Flow cytometry measures light scatter and fluorescence of single cells or particles in a stream.
UniProt P07766, sequence (P07766 23-207): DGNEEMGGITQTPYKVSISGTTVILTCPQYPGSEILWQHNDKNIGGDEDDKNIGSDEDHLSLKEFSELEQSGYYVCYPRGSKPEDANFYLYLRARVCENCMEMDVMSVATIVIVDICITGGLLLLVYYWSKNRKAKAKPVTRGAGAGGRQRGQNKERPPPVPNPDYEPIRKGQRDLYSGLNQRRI

As usually defined, the EC50 is the concentration giving half of the maximal effect. A higher EC50 goes with weaker potency. Substance “dimeric γδ_(ECTO)-αCD3 (AJ8 TCR, 3(G4S) linker), purified dimer fraction (from UniProt Q99603)” had an EC50 of 0.17 µg/mL.
